Assay results as given in US20090017041A1.

Legend:
[1] = target: oligomer-enriched preparation of the Aβ1-42 peptide (Example 16); experiment: ELISA, fraction coated at 2.2 µM; assay 3; antibody dilution 1:16 (start 0.5 µg/ml)
[2] = target: monomer-enriched preparation of the Aβ1-42 peptide (Example 16); experiment: as above
[3] = target: oligomer-enriched preparation of the Aβ1-42 peptide (Example 16); experiment: ELISA, fraction coated at 2.2 µM; assay 2; antibody dilution 1:8 (start 0.5 µg/ml)
[4] = target: monomer-enriched preparation of the Aβ1-42 peptide (Example 16); experiment: ELISA, fraction coated at 2.2 µM; antibody dilution 1:2 (start 0.5 µg/ml)
[5] = target: oligomer-enriched preparation of the Aβ1-42 peptide (Example 16); experiment: ELISA, fraction coated at 2.2 µM; assay 2; antibody dilution 1:32 (start 0.5 µg/ml)
[6] = target: monomer-enriched preparation of the Aβ1-42 peptide (Example 16); experiment: as above
[7] = target: oligomer-enriched preparation of the Aβ1-42 peptide (Example 16); experiment: ELISA, fraction coated at 2.2 µM; assay 2; antibody dilution 1:1 (start 0.5 µg/ml)
[8] = target: monomer-enriched preparation of the Aβ1-42 peptide (Example 16); experiment: as above
[9] = target: high molecular weight (HMW) proto-fibrillar (PF) oligomer enriched preparation of the Aβ1-42 peptide (Example 15) (human); experiment: ELISA, fraction coated at 2 µM; antibody 0.5 µg/ml
Chain of high molecular weight (HMW) proto-fibrillar (PF) oligomer enriched preparation of the Aβ1-42 peptide (Example 15) (human) (peptide, as listed by the source): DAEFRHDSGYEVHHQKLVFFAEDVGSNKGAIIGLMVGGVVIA

[10] = target: low molecular weight (LMW) monomeric preparation of the Aβ1-42 peptide (Example 15) (human); experiment: ELISA, fraction coated at 2 µM; antibody 0.5 µg/ml
Chain of low molecular weight (LMW) monomeric preparation of the Aβ1-42 peptide (Example 15) (human) (peptide, as listed by the source): as above

[11] = target: oligomer-enriched preparation of the Aβ1-42 peptide (Example 16); experiment: ELISA, fraction coated at 2.2 µM; assay 1; antibody dilution 1:16 (start 0.5 µg/ml)
[12] = target: monomer-enriched preparation of the Aβ1-42 peptide (Example 16); experiment: as above
[13] = target: oligomer-enriched preparation of the Aβ1-42 peptide (Example 16); experiment: ELISA, fraction coated at 2.2 µM; assay 1; antibody dilution 1:8 (start 0.5 µg/ml)
[14] = target: monomer-enriched preparation of the Aβ1-42 peptide (Example 16); experiment: as above
[15] = target: oligomer-enriched preparation of the Aβ1-42 peptide (Example 16); experiment: ELISA, fraction coated at 2.2 µM; antibody dilution 1:8 (start 0.5 µg/ml)
[16] = target: oligomer-enriched preparation of the Aβ1-42 peptide (Example 16); experiment: ELISA, fraction coated at 2.2 µM; assay 3; antibody dilution 1:1 (start 0.5 µg/ml)
[17] = target: monomer-enriched preparation of the Aβ1-42 peptide (Example 16); experiment: as above
[18] = target: high molecular weight (HMW) proto-fibrillar (PF) oligomer enriched preparation of the Aβ1-42 peptide (Example 15) (human); experiment: ELISA, fraction coated at 2 µM; antibody 0.0078 µg/ml
[19] = target: low molecular weight (LMW) monomeric preparation of the Aβ1-42 peptide (Example 15) (human); experiment: as above
[20] = target: oligomer-enriched preparation of the Aβ1-42 peptide (Example 16); experiment: ELISA, fraction coated at 2.2 µM; assay 3; antibody dilution 1:128 (start 0.5 µg/ml)
[21] = target: monomer-enriched preparation of the Aβ1-42 peptide (Example 16); experiment: as above
[22] = target: oligomer-enriched preparation of the Aβ1-42 peptide (Example 16); experiment: ELISA, fraction coated at 2.2 µM; assay 1; antibody dilution 1:64 (start 0.5 µg/ml)
[23] = target: monomer-enriched preparation of the Aβ1-42 peptide (Example 16); experiment: as above
[24] = target: oligomer-enriched preparation of the Aβ1-42 peptide (Example 16); experiment: ELISA, fraction coated at 2.2 µM; assay 3; antibody dilution 1:32 (start 0.5 µg/ml)
[25] = target: monomer-enriched preparation of the Aβ1-42 peptide (Example 16); experiment: as above
[26] = target: oligomer-enriched preparation of the Aβ1-42 peptide (Example 16); experiment: ELISA, fraction coated at 2.2 µM; assay 1; antibody dilution 1:2 (start 0.5 µg/ml)
[27] = target: monomer-enriched preparation of the Aβ1-42 peptide (Example 16); experiment: as above
[28] = target: oligomer-enriched preparation of the Aβ1-42 peptide (Example 16); experiment: ELISA, fraction coated at 2.2 µM; antibody dilution 1:32 (start 0.5 µg/ml)
[29] = target: monomer-enriched preparation of the Aβ1-42 peptide (Example 16); experiment: as above
[30] = target: oligomer-enriched preparation of the Aβ1-42 peptide (Example 16); experiment: ELISA, fraction coated at 2.2 µM; antibody dilution 1:4 (start 0.5 µg/ml)
[31] = target: monomer-enriched preparation of the Aβ1-42 peptide (Example 16); experiment: as above
[32] = target: oligomer-enriched preparation of the Aβ1-42 peptide (Example 16); experiment: ELISA, fraction coated at 2.2 µM; antibody dilution 1:128 (start 0.5 µg/ml)
[33] = target: monomer-enriched preparation of the Aβ1-42 peptide (Example 16); experiment: as above

Chain of oligomer-enriched preparation of the Aβ1-42 peptide (Example 16) (peptide, as listed by the source): as above
Chain of monomer-enriched preparation of the Aβ1-42 peptide (Example 16) (peptide, as listed by the source): as above

## 6E10 control antibody
[1]
  O.D. (405 nm): 2.07 O.D.
[2]
  O.D. (405 nm): 2.23 O.D.
[3]
  O.D. (405 nm): 2.99 O.D.
[4]
  O.D. (405 nm), mean of 3 assays: 3.59 O.D.
[5]
  O.D. (405 nm): 1.3 O.D.
[6]
  O.D. (405 nm): 1.34 O.D.
[7]
  O.D. (405 nm): 3.67 O.D.
[8]
  O.D. (405 nm): 3.77 O.D.
[9]
  O.D. (405 nm): 2 O.D.
[10]
  O.D. (405 nm): 2.13 O.D.
[11]
  O.D. (405 nm): 1.78 O.D.
[12]
  O.D. (405 nm): 1.78 O.D.
[13]
  O.D. (405 nm): 2.73 O.D.
[14]
  O.D. (405 nm): 2.67 O.D.
[15]
  O.D. (405 nm), mean of 3 assays: 2.98 O.D.
[16]
  O.D. (405 nm): 3.89 O.D.
[17]
  O.D. (405 nm): 4.04 O.D.
[18]
  O.D. (405 nm): 0.116 O.D.
[19]
  O.D. (405 nm): 0.133 O.D.
[20]
  O.D. (405 nm): 0.66 O.D.
[21]
  O.D. (405 nm): 0.86 O.D.
[22]
  O.D. (405 nm): 0.93 O.D.
[23]
  O.D. (405 nm): 0.81 O.D.
[24]
  O.D. (405 nm): 1.4 O.D.
[25]
  O.D. (405 nm): 1.54 O.D.
[26]
  O.D. (405 nm): 3.39 O.D.
[27]
  O.D. (405 nm): 3.3 O.D.
[28]
  O.D. (405 nm), mean of 3 assays: 1.32 O.D.
[29]
  O.D. (405 nm), mean of 3 assays: 1.36 O.D.
[30]
  O.D. (405 nm), mean of 3 assays: 3.37 O.D.
[31]
  O.D. (405 nm), mean of 3 assays: 3.27 O.D.
[32]
  O.D. (405 nm), mean of 3 assays: 0.63 O.D.
[33]
  O.D. (405 nm), mean of 3 assays: 0.75 O.D.
